± gives the standard deviation of the averaged measurements.
Test system: ATP
Assay: switch fluorescence ratio, 500 uM ATP over buffer (Cy3 cluster intensity, sum of 5 cycles each) (fold (ratio)); higher = stronger signal-on switching upon ATP binding; sequences stand for … in TCGTCGGCAGCGTCAGATGTGTATAAGAGACAGTTTTTTTTTTTTTTTTTTTTTTTTT…TC
Conditions: aptamer strand: ATP DNA aptamer (quencher-CACCTGGGGGAGTATTGCGGAGGAAGG + anchor), 100 nM annealed; ATP concentration: 500 uM
How it was run: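 Exposure to 500 uM ATP lasted 15 min at 22 °C before imaging, and a selection-buffer image was taken beforehand, for Cy3-labelled switching-strand clusters on a modified Illumina MiSeq flow-cell annealed to 100 nM quencher-labelled ATP aptamer. Five buffer/ATP cycles were run with NaOH stripping and re-annealing between them. The fluorescence ratio per cluster is summed target-cycle over summed buffer-cycle Cy3 intensity, averaged per switch-domain sequence. Clusters outside 100-1000 RFU were excluded.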

Row | Sequence | switch fluorescence ratio
1 | ATATGGGAAG | 1 ± 0.048
2 | TATAATGCTC | 1.01 ± 0.014
3 | AGGGACAGAC | 1.17 ± 0.054
4 | GGTGTACGGA | 0.972 ± 0.043
5 | TATTGTGATA | 0.991 ± 0.039
6 | GATTAATCTG | 0.962 ± 0.015
7 | ACTTGGAGGG | 1.01 ± 0.011
8 | CAAGTTGTGT | 0.9774 ± 0.0087
9 | TTGATAAAAG | 1.03 ± 0.08
10 | AAGTTTTTCG | 1.01 ± 0.014
11 | CGGTATAGCA | 0.971 ± 0.027
12 | AGCGGGGGGG | 1.02 ± 0.036
13 | GTTCAGTGAG | 0.995 ± 0.01
14 | TCGAAGGATA | 0.992 ± 0.011
15 | TTAAGATGCT | 0.997 ± 0.036
16 | GGGGGTGACC | 1.02 ± 0.025
17 | GGATAAATGC | 1.02 ± 0.043
18 | TTCGGGCCGG | 1.01 ± 0.033
19 | AGATGAGGAC | 0.922 ± 0.049
20 | GATGGACAGC | 1.04 ± 0.041
21 | TACGATTTGG | 0.993 ± 0.0027
22 | TTTTCGTCCT | 1.18 ± 0.18
23 | AAAGGGTGAG | 0.9726 ± 0.0064
24 | CGTGGGGATC | 1.06 ± 0.022
25 | CAAGTATGGG | 0.974 ± 0.035

Row | Sequence | switch fluorescence ratio
26 | TTTGGCCTAG | 1.02 ± 0.041
27 | ATAAAAAAGG | 1.01 ± 0.017
28 | CAGGTTTAAG | 0.975 ± 0.055
29 | TCACTATTTT | 1.01 ± 0.02
30 | CAATAGTAGA | 1.01 ± 0.036
31 | CGGGGGTGA | 1.014 ± 0.0059
32 | GCGTGAGGCG | 1.01 ± 0.02
33 | GTGGAAGGGC | 1.03 ± 0.079
34 | AGTAGTAAGC | 1.03 ± 0.023
35 | TGTTAAAATT | 0.969 ± 0.063
36 | CGGGCTGGAG | 1.09 ± 0.079
37 | GGGTGACAAC | 1.002 ± 0.0084
38 | GTTGGGCAGC | 1.046 ± 0.0053
39 | ACATTGGAGG | 0.986 ± 0.025
40 | AATGGGCGTC | 0.9902 ± 0.0069
41 | GCGGATGGTG | 1.07 ± 0.08
42 | GATAATAAAC | 1.06 ± 0.045
43 | TGTTGCGGGG | 0.995 ± 0.038
44 | ATGGGGAATT | 0.995 ± 0.035
45 | CACTGGACGG | 1.28 ± 0.049
46 | TAATTATTTT | 1.01 ± 0.03
47 | GCACTGGTAA | 1.023 ± 0.0071
48 | CGACAATGCC | 1.29 ± 0.03
49 | ACTGGTATGG | 1.01 ± 0.025
50 | CGAGTTTTCG | 1 ± 0.03

Row | Sequence | switch fluorescence ratio
51 | GAGTACTGTT | 0.972 ± 0.045
52 | GCTCGGGGGG | 0.987 ± 0.031
53 | TTTTGTCACT | 1.034 ± 0.0031
54 | AAATGGTATC | 1.01 ± 0.028
55 | CGTTAGTAAG | 0.982 ± 0.033
56 | TAAGCATATG | 1.011 ± 0.0037
57 | CTTTGATTGA | 0.9806 ± 0.0047
58 | CTATGGGTCC | 1.02 ± 0.026
59 | TTTTAAGGTA | 0.996 ± 0.026
60 | TGACACTTAA | 1.07 ± 0.096
61 | AGCTATTGGG | 0.975 ± 0.045
62 | TTGGAAGGGC | 1.012 ± 0.0063
63 | ATAATAGATA | 1.01 ± 0.038
64 | ACAAACTGCA | 1.17 ± 0.067
65 | ACGGGGGGCT | 0.995 ± 0.057
66 | CTGTCTATGC | 1.33 ± 0.049
67 | TTTGACTTTT | 0.994 ± 0.028
68 | AGGAGTGTCA | 0.965 ± 0.013
69 | TTCGGGGGAT | 1.01 ± 0.02
70 | GAAGACAGCG | 1.07 ± 0.024
71 | ATCGCGGTGC | 1.64 ± 0.33
72 | AAGGGTGGGG | 1 ± 0.058
73 | TTAAATCTCG | 0.989 ± 0.046
74 | ATTTTTTGCC | 0.962 ± 0.052
75 | GCCTTTAGCT | 0.943 ± 0.011

Row | Sequence | switch fluorescence ratio
76 | CGAATGAGGT | 0.99 ± 0.04
77 | TTAATGTGGG | 0.995 ± 0.014
78 | GCCAGGGGAG | 1.1 ± 0.12
79 | GAATGATGGC | 0.939 ± 0.065
80 | TTGATTTGTG | 0.997 ± 0.012
81 | CTTGGGATTA | 1.03 ± 0.016
82 | GGGTAGTAGT | 0.958 ± 0.035
83 | TAGCTGGAGG | 0.998 ± 0.035
84 | TAGATTTTTA | 0.987 ± 0.028
85 | GGAGGGGAAG | 1.07 ± 0.14
86 | ACATGTGTTT | 1.03 ± 0.028
87 | GGGTTGTTTC | 0.973 ± 0.027
88 | AATTTAAATT | 1 ± 0.037
89 | GAGATTGTGA | 0.992 ± 0.039
90 | AGCTAGCAG | 1.042 ± 0.0036
91 | AGGGCAACCG | 1.04 ± 0.028
92 | AACCGGGATC | 1.14 ± 0.013
93 | TGGGATACGA | 4.47 ± 0.82
94 | TCCTGGGTGT | 2.23 ± 0.12
95 | TTTGCTGGCG | 0.935 ± 0.024
96 | GGGGAAGTAC | 1.53 ± 0.31
97 | TTGAGGGGGA | 1.01 ± 0.014
98 | CGGTGTAGCT | 1.03 ± 0.019
99 | AAAAGACCCT | 1.04 ± 0.071
100 | AGAATGTGG | 1.21 ± 0.28

From the supplement of paper PMC10126150
